Data taken from the supplement of paper PMC9233669.
Variants at the floor of the assay were thinned out.

Experiments:
[1] = tested on: biotinyl-Met-oxazolone; experiment: self-aminoacylation, catalytic enhancement (BMO) (fold over background); higher = more active; k-Seq, kA / k0A0; sequences stand for … in GGGAAUGGAUCCACAUCUACGAAUUC…UUCACUGCAGACUUGACGAAGCUG
Procedure, shortened: (§1)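 Mutagenized RNA pools with a 21-nt variable region (0.43 μM) reacted with each biotinyl-aminoacyl-oxazolone at 2–1250 μM. Reactions ran in 50 μL HEPES/NaCl/KCl/MgCl2/CaCl2 buffer with 5% acetonitrile, pH 6.9–7.0, for 90 minutes at room temperature. Streptavidin-captured RNA was quantified by triplicate qPCR and Illumina sequencing, and per-sequence fraction reacted was fit to a pseudo-first-order model with 1000 bootstraps. Catalytic enhancement is median kA divided by the uncatalyzed rate, the low-activity peak of a bimodal Gaussian fit.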

[2] = tested on: biotinyl-Ile-oxazolone; experiment: self-aminoacylation, catalytic enhancement (BIO) (fold over background); higher = more active; k-Seq, kA / k0A0; sequences stand for … in GGGAAUGGAUCCACAUCUACGAAUUC…UUCACUGCAGACUUGACGAAGCUG
Procedure, shortened: as §1

[3] = tested on: biotinyl-Trp-oxazolone; experiment: self-aminoacylation, catalytic enhancement (BWO) (fold over background); higher = more active; k-Seq, kA / k0A0; sequences stand for … in GGGAAUGGAUCCACAUCUACGAAUUC…UUCACUGCAGACUUGACGAAGCUG
Procedure, shortened: as §1

[4] = tested on: biotinyl-Leu-oxazolone; experiment: self-aminoacylation, catalytic enhancement (BLO) (fold over background); higher = more active; k-Seq, kA / k0A0; sequences stand for … in GGGAAUGGAUCCACAUCUACGAAUUC…UUCACUGCAGACUUGACGAAGCUG
Procedure, shortened: as §1

[5] = tested on: biotinyl-Val-oxazolone; experiment: self-aminoacylation, catalytic enhancement (BVO) (fold over background); higher = more active; k-Seq, kA / k0A0; sequences stand for … in GGGAAUGGAUCCACAUCUACGAAUUC…UUCACUGCAGACUUGACGAAGCUG
Procedure, shortened: as §1

[6] = tested on: biotinyl-Phe-oxazolone; experiment: self-aminoacylation, catalytic enhancement (BFO) (fold over background); higher = more active; k-Seq, kA / k0A0; sequences stand for … in GGGAAUGGAUCCACAUCUACGAAUUC…UUCACUGCAGACUUGACGAAGCUG
Procedure, shortened: as §1

Sequence | self-aminoacylation [1] | self-aminoacylation [2] | self-aminoacylation [3] | self-aminoacylation [4] | self-aminoacylation [5] | self-aminoacylation [6]
CUACUUCAAACCAUGGGUCUG [Fam1A.1 aminoacylation ribozyme variant] | 0.765 | 0.966 | 0.564 | 0.827 | 0.776 | 0.455
CCACAAUUUAAGCAAUCGGUC [Fam1B.1 aminoacylation ribozyme variant] | 0.776 | 1.2 | 0.864 | 0.824 | 1.02 | 1.12
GAGUUUGCUAAUAGUCCCAAG [Fam3.1 aminoacylation ribozyme variant] | 1.33 | 1.05 | 1.64 | 0.812 | 1.1 | 4.57
AUUAGCCUGGUCAUCGAGUAA [Fam2.1 aminoacylation ribozyme variant] | 1.31 | 1.52 | 0.949 | 1.57 | 1.51 | 1.85
CCACCAUUCAAGCAAUCGGUC [Fam1B.1 aminoacylation ribozyme variant] | 0.934 | 1.16 | 1.4 | 0.958 | 1.3 | 1.89
AUUGACCUAGGCCAUCGGGUG [Fam2.2 aminoacylation ribozyme variant] | 4.78 | 3.65 | 6.22 | 5.7 | 4.27 | 39.3
CCUACCCUGGUCAUCGAGUGA [Fam2.1 aminoacylation ribozyme variant] | 6.64 | 3.88 | 9.17 | 7.58 | 4.14 | 49.8
AUUACCCUGGUCAUAAAGUGA [Fam2.1 aminoacylation ribozyme variant] | 11.1 | 4.88 | 13.4 | 10.3 | 5.16 | 43.9
AUUACCUUGGUCAUCGAAUGA [Fam2.1 aminoacylation ribozyme variant] | 0.77 | 1.14 | 0.837 | 1.1 | 0.945 | 0.902
AUUACCCUGGUCAUCGAUUGG [Fam2.1 aminoacylation ribozyme variant] | 0.715 | 0.665 | 1.3 | 0.713 | 0.856 | 0.798
AUUACCCCGGUAAUCGAGUGA [Fam2.1 aminoacylation ribozyme variant] | 5.18 | 2.73 | 5.41 | 4.59 | 2.85 | 26.7
AUUCACCUAGUUCGUCGGGUG [Fam2.2 aminoacylation ribozyme variant] | 1.26 | 1.14 | 1.15 | 1.32 | 1.23 | 3.17
AUUACCCUGGUCAUAGAGUGU [Fam2.1 aminoacylation ribozyme variant] | 4.07 | 2.08 | 4.8 | 3.73 | 2.58 | 13.5
AUUACCCUGUUCAUCUAGUGA [Fam2.1 aminoacylation ribozyme variant] | 16.4 | 6.08 | 17.3 | 14.8 | 7.03 | 86.2
AUUCGCCUCGGUCAUCGGGUG [Fam2.2 aminoacylation ribozyme variant] | 8.96 | 5.14 | 8.94 | 10.9 | 6.21 | 56.3
AUUACCCUGGUCAUCGGAUGA [Fam2.1 aminoacylation ribozyme variant] | 1.16 | 1.4 | 1.62 | 1.65 | 1.36 | 0.931
UUUCUCCUAGGUCAUCGGGUG [Fam2.2 aminoacylation ribozyme variant] | 7.74 | 5.35 | 8.02 | 9.78 | 5.4 | 32.5
AUUCACCUAGUUUAUCGGGUG [Fam2.2 aminoacylation ribozyme variant] | 3.75 | 2.39 | 4.61 | 3.48 | 2.61 | 21.2
AUUACCCUGGUCAUCGAGUGU [Fam2.1 aminoacylation ribozyme variant] | 108 | 31.7 | 104 | 105 | 37.4 | 785
AUACUUCAAACAAUGGGUCUG [Fam1A.1 aminoacylation ribozyme variant] | 0.862 | 0.935 | 0.934 | 0.847 | 0.921 | 0.774
AAGUUUGUUAAUAGUCCCAAG [Fam3.1 aminoacylation ribozyme variant] | 0.751 | 0.846 | 0.847 | 0.775 | 0.884 | 1.12
AUUCCCCUAGGUCAUCGGAUG [Fam2.2 aminoacylation ribozyme variant] | 2.88 | 3.04 | 4.36 | 3.28 | 3.49 | 2.14
AUUACCCUGGACAUCGCGUGA [Fam2.1 aminoacylation ribozyme variant] | 9.04 | 4.42 | 9.83 | 9.65 | 5.5 | 80
